For 8 molecules, Kd results are on record in patent US20240190987A1 (TIGATX, published 2024).

B1: Ab0936 (antibody, V domains shown)
VH: EVQLVESGGGLVQPGGSLRLSCAASGFDFSSYSIHWVRQAPGKGLEWVAAISPYYGSTYYADSVKGRFTISADTSKNTAYLQMNSLRAEDTAVYYCARYYEWYKYDLYLGSLGFDYWGQGTLVTVSS
VL: DIQMTQSPSSLSASVGDRVTITCRASQSVSSAVAWYQQKPGKAPKLLIYSASSLYSGVPSRFSGSRSGTDFTLTISSLQPEDFATYYCQQGGYSLITFGQGTKVEIK
notes: also called LS2B R6M2
B2: Ab0953 (antibody, V domains shown)
VH: EVQLVESGGGLVQPGGSLRLSCAASGFDFSSYSIHWVRQAPGKGLEWVASISPYYGSTYYADSVKGRFTISADTSKNTAYLQMNSLRAEDTAVYYCARYYEWYKYDLYLGSLGFDYWGQGTLVTVSS
VL: DIQMTQSPSSLSASVGDRVTITCRASQSVSSAVAWYQQKPGKAPKLLIYSASSLYSGVPSRFSGSRSGTDFTLTISSLQPEDFATYYCQQGAYSLITFGQGTKVEIK
notes: also called LS2B R6M22
B3: Ab0939 (antibody, V domains shown)
VH: EVQLVESGGGLVQPGGSLRLSCAASGFDFSSYSIHWVRQAPGKGLEWVASISAYYGSTYYADSVKGRFTISADTSKNTAYLQMNSLRAEDTAVYYCARYYEWYKYDLYLGSLGFDYWGQGTLVTVSS
VL: DIQMTQSPSSLSASVGDRVTITCRASQSVSSAVAWYQQKPGKAPKLLIYSASSLYSGVPSRFSGSRSGTDFTLTISSLQPEDFATYYCQQGGYSLITFGQGTKVEIK
notes: also called LS2B R6M5
B4: Ab0941 (antibody, V domains shown)
VH: EVQLVESGGGLVQPGGSLRLSCAASGFDFSSYSIHWVRQAPGKGLEWVASISPYYGATYYADSVKGRFTISADTSKNTAYLQMNSLRAEDTAVYYCARYYEWYKYDLYLGSLGFDYWGQGTLVTVSS
VL: DIQMTQSPSSLSASVGDRVTITCRASQSVSSAVAWYQQKPGKAPKLLIYSASSLYSGVPSRFSGSRSGTDFTLTISSLQPEDFATYYCQQGGYSLITFGQGTKVEIK
notes: also called LS2B R6M7
B5: Ab0958 (antibody, V domains shown)
VH: EVQLVESGGGLVQPGGSLRLSCAASGFDFSSYSIHWVRQAPGKGLEWVASISPYYGSTYYADSVKGRFTISADTSKNTAYLQMNSLRAEDTAVYYCARYYEWYKYDLYLGSLGFDYWGQGTLVTVSS
VL: DIQMTQSPSSLSASVGDRVTITCRASQSVSSAVAWYQQKPGKAPKLLIYSASSLYSGVPSRFSGSRSGTDFTLTISSLQPEDFATYYCQQGGYSLIAFGQGTKVEIK
notes: also called LS2B R6M27
B6: Ab0937 (antibody, V domains shown)
VH: EVQLVESGGGLVQPGGSLRLSCAASGFDFSSYSIHWVRQAPGKGLEWVASASPYYGSTYYADSVKGRFTISADTSKNTAYLQMNSLRAEDTAVYYCARYYEWYKYDLYLGSLGFDYWGQGTLVTVSS
VL: DIQMTQSPSSLSASVGDRVTITCRASQSVSSAVAWYQQKPGKAPKLLIYSASSLYSGVPSRFSGSRSGTDFTLTISSLQPEDFATYYCQQGGYSLITFGQGTKVEIK
notes: also called LS2B R6M3
B7: Ab0944 (antibody, V domains shown)
VH: EVQLVESGGGLVQPGGSLRLSCAASGFDFSSYSIHWVRQAPGKGLEWVASISPYYGSTYYADSVKGRFTISADTSKNTAYLQMNSLRAEDTAVYYCARYYEWYKYALYLGSLGFDYWGQGTLVTVSS
VL: DIQMTQSPSSLSASVGDRVTITCRASQSVSSAVAWYQQKPGKAPKLLIYSASSLYSGVPSRFSGSRSGTDFTLTISSLQPEDFATYYCQQGGYSLITFGQGTKVEIK
notes: also called LS2B R6M10
B8: Ab1071 (Fab, V domains shown)
VH: EVQLVESGGGLVQPGGSLRLSCAASGFDFSSYSIHWVRQAPGKGLEWVASISPYYGSTYYADSVKGRFTISADTSKNTAYLQMNSLRAEDTAVYYCARYYEWYKYDLYAGSLGFDYWGQGTLVTVSS
VL: DIQMTQSPSSLSASVGDRVTITCRASQSVSSAVAWYQQKPGKAPKLLIYSASSLYSGVPSRFSGSRSGTDFTLTISSLQPEDFATYYCQQGGYSLITFGQGTKVEIK
notes: also called LS2B R5M2 Fab

The target in the first experiment is T1, Ab0787.
T1 construct: Fab, His-Tag, Avi-Tag; Ab0785 + HC I50M; also called LS2A R3M2; Ab787
Nature of the experiment: BLI 1-pt +indinavir.
B1: binding was characterised by a dissociation constant (Kd) of 5.7 nM. In other words, the single-digit nanomolar range.

In the case of B2, the affinity, expressed as Kd, was 50 nM. Consider B3, for which the Kd amounted to 40 nM. B4 yielded a Kd of 49 nM. Regarding B5, the affinity, expressed as Kd, was 42 nM. Regarding B6, binding was characterised by a dissociation constant (Kd) of 42 nM. With B7, the affinity, expressed as Kd, was 100 nM.

Another experiment deals with T2, Ab0786.
T2 construct: Fab, His-Tag, Avi-Tag; Ab0785 + HC I50M+S58N; also called LS2A R3M1 Fab; biotinylated-Ab0786
The experiment is described as follows: BLI +indinavir.
In turn, B8 showed a Kd of 79 nM.

The next experiment concerns the target T1, Ab0787. Nature of the experiment: BLI 5-pt +indinavir.
With B1, the affinity, expressed as Kd, was 1 nM.
